Experiments:
[1] = target: human PD-L1 expressed on 300.19 cells (human) (UniProt Q9NZQ7); assay: FACS on hPD-L1 300 cells, antibody 1 ug/ml
[2] = target: human PD-L1 expressed on 300.19 cells (human) (UniProt Q9NZQ7); assay: FACS competition, PD-1-Ig on hPD-L1 300 cells, mAb 0.12 ug/ml
[3] = target: human PD-L1 expressed on 300.19 cells (human) (UniProt Q9NZQ7); assay: FACS blockade, B7-1-hIgG on 300-hPD-L1 cells, mAb 10 ug/ml
[4] = target: human PD-L1 expressed on 300.19 cells (human) (UniProt Q9NZQ7); assay: FACS competition, PD-1-Ig on hPD-L1 300 cells, mAb 10 ug/ml
[5] = target: human PD-L1 expressed on 300.19 cells (human) (UniProt Q9NZQ7); assay: FACS competition, PD-1-Ig on hPD-L1 300 cells, mAb 1.1 ug/ml
[6] = target: human PD-L1 expressed on 300.19 cells (human) (UniProt Q9NZQ7); assay: FACS on hPD-L1 300 cells, antibody 0.1 ug/ml
[7] = target: T1, human PD-L2 expressed on 300.19 cells (human) (UniProt Q9BQ51); assay: FACS competition, PD-1-Ig on hPD-L2 300 cells, mAb 0.37 ug/ml
T1 sequence: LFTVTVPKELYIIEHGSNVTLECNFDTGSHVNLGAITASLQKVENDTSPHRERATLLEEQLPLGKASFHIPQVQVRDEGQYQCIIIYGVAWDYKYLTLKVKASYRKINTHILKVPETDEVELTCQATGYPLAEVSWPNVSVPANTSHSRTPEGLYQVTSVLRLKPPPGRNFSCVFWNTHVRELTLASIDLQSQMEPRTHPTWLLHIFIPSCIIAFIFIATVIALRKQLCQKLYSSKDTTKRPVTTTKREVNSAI

[8] = target: human PD-L1 expressed on 300.19 cells (human) (UniProt Q9NZQ7); assay: FACS competition, PD-1-Ig on hPD-L1 300 cells, mAb 3.3 ug/ml
[9] = target: T1, human PD-L2 expressed on 300.19 cells (human); assay: FACS competition, PD-1-Ig on hPD-L2 300 cells, mAb 10 ug/ml
[10] = target: human PD-L1 expressed on 300.19 cells (human) (UniProt Q9NZQ7); assay: FACS blockade, B7-1-hIgG on 300-hPD-L1 cells, mAb 0.625 ug/ml
[11] = target: T1, human PD-L2 expressed on 300.19 cells (human); assay: FACS competition, PD-1-Ig on hPD-L2 300 cells, mAb 0.12 ug/ml
[12] = target: human PD-L1 expressed on 300.19 cells (human) (UniProt Q9NZQ7); assay: FACS blockade, B7-1-hIgG on 300-hPD-L1 cells, mAb 20 ug/ml
[13] = target: T1, human PD-L2 expressed on 300.19 cells (human); assay: FACS competition, PD-1-Ig on hPD-L2 300 cells, mAb 30 ug/ml
[14] = target: T1, human PD-L2 expressed on 300.19 cells (human); assay: FACS competition, PD-1-Ig on hPD-L2 300 cells, mAb 90 ug/ml
[15] = target: human PD-L1 expressed on 300.19 cells (human) (UniProt Q9NZQ7); assay: FACS blockade, B7-1-hIgG on 300-hPD-L1 cells, mAb 0.156 ug/ml
[16] = target: human PD-L1 expressed on 300.19 cells (human) (UniProt Q9NZQ7); assay: FACS competition, PD-1-Ig on hPD-L1 300 cells, mAb 90 ug/ml
[17] = target: human PD-L1 expressed on 300.19 cells (human) (UniProt Q9NZQ7); assay: FACS on hPD-L1 300 cells, antibody 10 ug/ml
[18] = target: human PD-L1 expressed on 300.19 cells (human) (UniProt Q9NZQ7); assay: FACS competition, PD-1-Ig on hPD-L1 300 cells, mAb 0.04 ug/ml
[19] = target: human PD-L1 expressed on 300.19 cells (human) (UniProt Q9NZQ7); assay: FACS blockade, B7-1-hIgG on 300-hPD-L1 cells, mAb 0.0195 ug/ml
[20] = target: human PD-L1 expressed on 300.19 cells (human) (UniProt Q9NZQ7); assay: FACS blockade, B7-1-hIgG on 300-hPD-L1 cells, mAb 0.078 ug/ml
[21] = target: human PD-L1 expressed on 300.19 cells (human) (UniProt Q9NZQ7); assay: FACS blockade, B7-1-hIgG on 300-hPD-L1 cells, mAb '0.0.39' [sic] ug/ml
[22] = target: T1, human PD-L2 expressed on 300.19 cells (human); assay: FACS on hPD-L2 300 cells, antibody 1 ug/ml
[23] = target: human PD-L1 expressed on 300.19 cells (human) (UniProt Q9NZQ7); assay: FACS competition, PD-1-Ig on hPD-L1 300 cells, mAb 0.37 ug/ml
[24] = target: T1, human PD-L2 expressed on 300.19 cells (human); assay: FACS on hPD-L2 300 cells, antibody 0.1 ug/ml
[25] = target: human PD-L1 expressed on 300.19 cells (human) (UniProt Q9NZQ7); assay: FACS competition, PD-1-Ig on hPD-L1 300 cells, mAb 30 ug/ml
[26] = target: T1, human PD-L2 expressed on 300.19 cells (human); assay: FACS competition, PD-1-Ig on hPD-L2 300 cells, mAb 0.04 ug/ml
[27] = target: T1, human PD-L2 expressed on 300.19 cells (human); assay: FACS competition, PD-1-Ig on hPD-L2 300 cells, mAb 1.1 ug/ml
[28] = target: T1, human PD-L2 expressed on 300.19 cells (human); assay: FACS on hPD-L2 300 cells, antibody 10 ug/ml
[29] = target: human PD-L1 expressed on 300.19 cells (human) (UniProt Q9NZQ7); assay: FACS blockade, B7-1-hIgG on 300-hPD-L1 cells, mAb 1.25 ug/ml
[30] = target: T1, human PD-L2 expressed on 300.19 cells (human); assay: FACS competition, PD-1-Ig on hPD-L2 300 cells, mAb 3.3 ug/ml
[31] = target: human PD-L1 expressed on 300.19 cells (human) (UniProt Q9NZQ7); assay: FACS blockade, B7-1-hIgG on 300-hPD-L1 cells, mAb 0.313 ug/ml
[32] = target: human PD-L1 expressed on 300.19 cells (human) (UniProt Q9NZQ7); assay: FACS blockade, B7-1-hIgG on 300-hPD-L1 cells, mAb 0.0098 ug/ml
[33] = target: human PD-L1 expressed on 300.19 cells (human) (UniProt Q9NZQ7); assay: FACS blockade, B7-1-hIgG on 300-hPD-L1 cells, mAb 2.5 ug/ml
[34] = target: human PD-L1 expressed on 300.19 cells (human) (UniProt Q9NZQ7); assay: FACS blockade, B7-1-hIgG on 300-hPD-L1 cells, mAb 5 ug/ml

Chain of UniProt Q9NZQ7 (Q9NZQ7 19-290): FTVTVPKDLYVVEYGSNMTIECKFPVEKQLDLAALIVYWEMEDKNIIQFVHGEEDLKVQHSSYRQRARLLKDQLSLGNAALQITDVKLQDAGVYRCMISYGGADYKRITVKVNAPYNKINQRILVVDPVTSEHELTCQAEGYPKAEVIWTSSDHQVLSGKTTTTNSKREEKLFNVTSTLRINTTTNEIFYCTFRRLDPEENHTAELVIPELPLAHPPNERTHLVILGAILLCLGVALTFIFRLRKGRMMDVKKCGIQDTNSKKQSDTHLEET

B1: 29E.2A3 (antibody, from a related filing, V domains shown)
VH: EVQLQQSGPELVKPGASVKMSCKASGYTFTSYVMHWVKQKPGQGLEWIGYVNPFNDGTKYNEMFKGKATLTSDKSSSTAYMELSSLTSEDSAVYYCARQAWGYPWGQGTLVTVSA
VL: DIVLTQSPASLAVSLGQRATISCRATESVEYYGTSLVQWYQQKPGQPPKLLIYAASSVDSGVPARFSGSGSGTDFSLTIHPVEEDDIAMYFCQQSRRVPYTFGGGTKLEIK
Mean of PE signal [1]: 234000 | Mean of PE Signal (bound PD-1-Ig) [2]: 523 | Mean of PE Signal (bound B7-1-Ig) [3]: 797 | Mean of PE Signal (bound PD-1-Ig) [4]: 52 | Mean of PE Signal (bound PD-1-Ig) [5]: 51 | Mean of PE signal [6]: 109000 | Mean of PE Signal (bound PD-1-Ig) [7]: 52900 | Mean of PE Signal (bound PD-1-Ig) [8]: 50 | Mean of PE Signal (bound PD-1-Ig) [9]: 53800 | Mean of PE Signal (bound B7-1-Ig) [10]: 850 | Mean of PE Signal (bound PD-1-Ig) [11]: 53900 | Mean of PE Signal (bound B7-1-Ig) [12]: 811 | Mean of PE Signal (bound PD-1-Ig) [13]: 53900 | Mean of PE Signal (bound PD-1-Ig) [14]: 55100 | Mean of PE Signal (bound B7-1-Ig) [15]: 853 | Mean of PE Signal (bound PD-1-Ig) [16]: 54 | Mean of PE signal [17]: 235000 | Mean of PE Signal (bound PD-1-Ig) [18]: 6100 | Mean of PE Signal (bound B7-1-Ig) [19]: 1710 | Mean of PE Signal (bound B7-1-Ig) [20]: 807 | Mean of PE Signal (bound B7-1-Ig) [21]: 1230 | Mean of PE signal [22]: 150 | Mean of PE Signal (bound PD-1-Ig) [23]: 65 | Mean of PE signal [24]: 150 | Mean of PE Signal (bound PD-1-Ig) [25]: 53 | Mean of PE Signal (bound PD-1-Ig) [26]: 58800 | Mean of PE Signal (bound PD-1-Ig) [27]: 56100 | Mean of PE signal [28]: 251 | Mean of PE Signal (bound B7-1-Ig) [29]: 788 | Mean of PE Signal (bound PD-1-Ig) [30]: 56700 | Mean of PE Signal (bound B7-1-Ig) [31]: 770 | Mean of PE Signal (bound B7-1-Ig) [32]: 2540 | Mean of PE Signal (bound B7-1-Ig) [33]: 823 | Mean of PE Signal (bound B7-1-Ig) [34]: 853
